# According to patent publication US20250332297A1, “DLL3-SPECIFIC BINDING CONSTRUCTS AND THEIR USE IN RADIOTHERAPY” (MOLECULAR PARTNERS AG, priority 2024, published 2025):
# T1: Human DLL3-ECD (Homo sapiens, UniProt Q9NYJ7)
# T1 construct: human DLL3 protein (Q9NYJ7, Gene ID: 10683, residues 27 to 466) linked via an Avi-tag; 3C protease recognition site (C); Fc knob into hole (C); purchased Evitria; host or cells: CHO cells
# T1 sequence (Q9NYJ7 27-466): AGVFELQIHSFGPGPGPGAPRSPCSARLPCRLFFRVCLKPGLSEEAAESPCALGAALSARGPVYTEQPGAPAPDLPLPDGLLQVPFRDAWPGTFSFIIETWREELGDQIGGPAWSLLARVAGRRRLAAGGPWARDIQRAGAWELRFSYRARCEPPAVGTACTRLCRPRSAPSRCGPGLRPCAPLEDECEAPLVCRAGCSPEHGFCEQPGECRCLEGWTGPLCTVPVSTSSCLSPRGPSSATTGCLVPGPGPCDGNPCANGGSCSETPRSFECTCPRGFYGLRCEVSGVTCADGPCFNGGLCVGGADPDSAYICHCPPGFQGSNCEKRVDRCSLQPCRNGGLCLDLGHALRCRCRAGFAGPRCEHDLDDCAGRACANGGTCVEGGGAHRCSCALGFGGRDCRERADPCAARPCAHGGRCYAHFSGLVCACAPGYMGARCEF
# B1: MAM279: Two domain (2D) ankyrin repeat protein: serum albumin-specific domain (SEQ ID NO: 7), PT linker, DLL3-specific domain of MAM093 (protein)
# chain: DLGKKLLEAARAGQDDEVRELLKAGADVNAKDYFSHTPLHLAARNGHLKIVEVLLKAGADVNAKDFAGKTPLHLAADAGHLEIVEVLLKAGADVNAQDIFGKTPADIAADAGHEDIAEVLQKAAGSPTPTPTTPTPTPTTPTPTPTGSDLGKKLLAAAAQGQDDEVRELLKAGANVNAKDLFGYTPLHLAAWRGHLEIVEVLLKAGADVNAKDAAGETPLHLAAWFGHLEIVEVLLKAGADVNAQDLQGKTPADLAAKEGHEDIAEVLQKAA
# modifications: Ankyrin repeat protein (MAM279)
# How the values were obtained:
# hDLL3-MC38 tumor model = experiment: Biodistribution of radio-labelled DARPin conjugates in hDLL3-MC38 tumor model; assay type: in vivo, mouse; conditions: Pb-212 DOTAM conjugate 0.01 mg/kg (10 μCi) i.v., athymic nude mice, s.c. hDLL3-MC38
# Description: hDLL3-MC38 tumor model. ATH mice were purchased from Envigo. General handling and maintenance of mice was done as described above for the NCI-H82 tumor model. hDLL3-MC38 cells were purchased from Biocytogen (Catalog No. 311448). […] Cells were quantified using Countess cell counter.
# Biodistribution study. […] Based on immunohistochemistry analyses, the hDLL3-MC38 tumors have a higher level of human DLL3 expression than the NCI-H82 tumors described in Example 3 (data not shown). Biodistribution was monitored at 1 h, 4 h and 24h post-injection. Mice were euthanized by CO2 inhalation and cervical dislocation.
# Mice were euthanized by CO2 inhalation and cervical dislocation.
# Human DLL3-ECD = target: T1, Human DLL3-ECD; experiment: SPR binding to human DLL3-ECD (Example 11); conditions: immobilized biotinylated target, 1:1 Langmuir, Tables 14, 15
# Description: Two target formats were chosen: i) the first target protein consisted of the extracellular domain of human DLL3 protein (Q9NYJ7, Gene ID: 10683, residues 27 to 466) linked via an Avi-tag (for site-directed biotinylation), followed by a 3C protease recognition site, to a Fc knob into hole (hDLL3-Avi-Fckih); ii) the second target protein consisted of a very similar design including more residues of the extracellular domain of DLL3 (Q9NYJ7, Gene ID: 10683, res 27-470), directly linked to the Fc knob into hole domain followed by an Avi-tag (hDLL3-Fckih-Avi).
# hDLL3-Avi-Fckih was expressed in CHO cells (Chinese hamster ovary cells) by Evitria and purified by a protein A derivative-based affinity chromatography followed by preparative size-exclusion chromatography (SEC). The material was up-concentrated in PBS pH 7.4 to 0.69 mg/ml and in vitro biotinylated using recombinant BirA. The final material was monomeric on size exclusion and stored in PBS pH 7.4 at the final concentration of 0.35 mg/ml.
# The binding of 2D ankyrin repeat protein MAM279 as well as of MAM279 conjugated to the chelator DOTAM (the conjugation was performed as described in Example 3) to different target proteins was analyzed by Surface Plasmon Resonance (SPR). Specifically, the proteins analyzed were (i) MAM279 (SEQ ID NO: 11), with a Glycine-Serine (GS) at its N-terminal end and an N-terminal His-tag (SEQ ID NO: 19); and (ii) MAM279 (SEQ ID NO: 11), with a Glycine-Serine (GS) at its N-terminal end and a tag (SEQ ID NO: 10) at its C-terminal end (resulting in GS-MAM279-tag (SEQ ID NO: 15)), conjugated to the chelator DOTAM as described in Example 3.
# A surface plasmon resonance (SPR) assay was used to determine the binding kinetics of the two proteins (i.e. MAM279 with and without conjugation to chelator) to different targets: the Extra-Cellular Domain (ECD) of human DLL3, the ECD of cynomolgus monkey DLL3, the N-Terminal Domain (NTD) only of human DLL3, and the NTD dog DLL3. The data were generated using BioRad ProteOn instrument in SPR running buffer (PBS, pH 7.4 containing 0.005% Tween 20©). […] The chip was coated with biotinylated target to reach a signal intensity of 1516 RU (human ECD), 257 RU (human NTD), 1500 RU (cyno ECD) and 228 RU (dog NTD). All analytes (various concentrations in 3-fold dilutions ranging from 500-6.17 nM) were injected in succession for 240 s (100 μl/min) and dissociation was recorded for 10800 s (100 μl/min). Each injection was followed by a regeneration step with 16 mM H3PO4 for 18 s. […] The obtained SPR traces were used to determine on-rate and off-rate interaction parameters.
# [1] = Thermal stability by Circular Dichroism (CD) spectroscopy; assay type: physicochemical; conditions: CD at 222 nm, 20° C. to 90° C., 2 μM in PBS pH7.4; DARPins with C-terminal Cysteine-containing tag (SEQ ID NOs: 15, 16, 18)
# Procedure: Labelling of proteins conjugated to a chelator with a radionuclide may require harsh conditions, including high temperatures. The thermal stability and the propensity to unfold/refold of 2D DARPins MAM279, MAM283 and MAM282 were assessed using Circular Dichroism (CD) spectroscopy.
# Samples of the DARPins were diluted to 2 μM in PBS, pH7.4. The assessment was done using a Jasco J-815 spectrophotometer. The Tm (melting temperature) of the selected proteins was determined by CD as a parameter for thermal stability. In brief, the ellipticity was recorded at […] and a temperature range from 20° C. to 90° C. was applied followed by reverse scan to record the refolding behavior. The Tm of the selected ankyrin repeat protein constructs is the midpoint of the protein unfolding. Spectra from 190-250 nm were recorded before and after the temperature scan.
molecule,measurement,setting,value
B1,Blood % ID/g,"hDLL3-MC38 tumor model; 4 h, Example 7",21.2 % ID/g
same,Kidneys % ID/g,"hDLL3-MC38 tumor model; 4 h, Example 7",14.3 % ID/g
same,Tumors % ID/g,"hDLL3-MC38 tumor model; 4 h, Example 7",20.6 % ID/g
same,Blood % ID/g,"hDLL3-MC38 tumor model; 4 h, Example 9",21 % ID/g
same,Kidneys % ID/g,"hDLL3-MC38 tumor model; 4 h, Example 9",14 % ID/g
same,T:K ratio,"hDLL3-MC38 tumor model; 4 h, Example 9",1.5
same,Tumors % ID/g,"hDLL3-MC38 tumor model; 4 h, Example 9",21 % ID/g
same,Blood % ID/g,"hDLL3-MC38 tumor model; 24 h, Example 7",8.1 % ID/g
same,Kidneys % ID/g,"hDLL3-MC38 tumor model; 24 h, Example 7",23.3 % ID/g
same,Tumors % ID/g,"hDLL3-MC38 tumor model; 24 h, Example 7",57.6 % ID/g
same,Blood % ID/g,"hDLL3-MC38 tumor model; 24 h, Example 9",8 % ID/g
same,Kidneys % ID/g,"hDLL3-MC38 tumor model; 24 h, Example 9",23 % ID/g
same,T:K ratio,"hDLL3-MC38 tumor model; 24 h, Example 9",2.5
same,Tumors % ID/g,"hDLL3-MC38 tumor model; 24 h, Example 9",58 % ID/g
same,Kd,Human DLL3-ECD,0.174 nM
same,Koff Human DLL3-ECD,Human DLL3-ECD,1.45e-05 s⁻¹
same,Kon Human DLL3-ECD,Human DLL3-ECD,83500 M⁻¹ s⁻¹
same,melting temperature (Tm),[1],above 85 °C
